Laboratory results from patent US20090258024A1.

Biological target: mouse CD147 (mouse) (UniProt P18572)

migration induced by CypA (Boyden chamber chemotaxis) of mouse neutrophils, monocytes and activated CD4+ T cells: > 90%
Substance: Rat anti-mouse CD147 monoclonal antibody purified from the RL73.2 hybridoma
